Test results published in PMC5266791 (Cell Reports, 2016).

How the values were obtained:
[1] = target: FANCB-FANCL-FAAP100 complex (human, UniProt Q8NB91;Q9NW38;Q0VG06); test: SEC
[2] = target: the molecule itself; test: negative-stain single-particle EM

Chain of FANCB-FANCL-FAAP100 complex (Q9NW38 whole entry, chain 2 of 2): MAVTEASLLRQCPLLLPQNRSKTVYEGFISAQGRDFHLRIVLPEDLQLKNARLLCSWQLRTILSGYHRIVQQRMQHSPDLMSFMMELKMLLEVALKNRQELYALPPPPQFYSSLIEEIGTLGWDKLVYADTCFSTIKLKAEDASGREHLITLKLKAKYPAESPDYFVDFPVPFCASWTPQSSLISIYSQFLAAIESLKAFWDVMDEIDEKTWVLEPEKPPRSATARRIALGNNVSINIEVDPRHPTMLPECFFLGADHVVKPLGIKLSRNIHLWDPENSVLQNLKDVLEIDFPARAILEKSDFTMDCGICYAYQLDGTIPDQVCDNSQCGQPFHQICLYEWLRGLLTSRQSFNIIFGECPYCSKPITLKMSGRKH
Chain of FANCB-FANCL-FAAP100 complex (Q0VG06 whole entry, chain 3 of 2): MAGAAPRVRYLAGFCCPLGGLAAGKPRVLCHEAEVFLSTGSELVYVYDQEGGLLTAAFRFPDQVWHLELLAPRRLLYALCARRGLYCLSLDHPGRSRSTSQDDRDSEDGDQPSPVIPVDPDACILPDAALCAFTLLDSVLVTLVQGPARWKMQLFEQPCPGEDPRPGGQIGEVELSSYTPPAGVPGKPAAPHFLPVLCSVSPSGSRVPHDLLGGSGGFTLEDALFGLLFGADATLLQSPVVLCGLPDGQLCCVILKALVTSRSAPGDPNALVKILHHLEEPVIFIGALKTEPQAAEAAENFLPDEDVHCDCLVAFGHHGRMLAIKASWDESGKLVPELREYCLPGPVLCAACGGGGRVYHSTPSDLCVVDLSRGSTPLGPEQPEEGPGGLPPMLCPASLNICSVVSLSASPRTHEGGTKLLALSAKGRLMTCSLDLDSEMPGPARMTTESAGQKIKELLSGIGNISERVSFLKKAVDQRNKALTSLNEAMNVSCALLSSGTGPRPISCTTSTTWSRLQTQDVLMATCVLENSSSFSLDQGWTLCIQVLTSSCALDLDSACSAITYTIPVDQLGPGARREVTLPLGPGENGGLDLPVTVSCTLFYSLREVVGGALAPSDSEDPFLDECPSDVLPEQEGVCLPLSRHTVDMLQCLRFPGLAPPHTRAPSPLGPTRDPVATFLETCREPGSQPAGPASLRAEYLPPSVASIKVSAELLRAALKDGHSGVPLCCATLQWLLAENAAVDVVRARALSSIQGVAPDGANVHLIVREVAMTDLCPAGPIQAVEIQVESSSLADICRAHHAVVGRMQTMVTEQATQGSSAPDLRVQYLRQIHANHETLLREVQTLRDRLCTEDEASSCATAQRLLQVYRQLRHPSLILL

Row | binding result [1] | Binder | stoichiometry N [2]
1 | binds | (MBP)FANCC-FANCE-FANCF complex (complex) chain 1: MAQDSVDLSCDYQFWMQKLSVWDQASTLETQQDTCLHVAQFQEFLRKMYEALKEMDSNTVIERFPTIGQLLAKACWNPFILAYDESQKILIWCLCCLINKEPQNSGQSKLNSWIQGVLSHILSALRFDKEVALFTQGLGYAPIDYYPGLLKNMVLSLASELRENHLNGFNTQRRMAPERVASLSRVCVPLITLTDVDPLVEALLICHGREPQEILQPEFFEAVNEAILLKKISLPMSAVVCLWLRHLPSLEKAMLHLFEKLISSERNCLRRIECFIKDSSLPQAACHPAIFRVVDEMFRCALLETDGALEIIATIQVFTQCFVEALEKASKQLRFALKTYFPYTSPSLAMVLLQDPQDIPRGHWLQTLKHISELLREAVEDQTHGSCGGPFESWFLFIHFGGWAEMVAEQLLMSAAEPPTALLWLLAFYYGPRDGRQQRAQTMVQVKAVLGHLLAMSRSSSLSAQDLQTVAGQGTDTDLRAPAQQLIRHLLLNFLLWAPGGHTIAWDVITLMAHTAEITHEIIGFLDQTLYRWNRLGIESPRSEKLARELLKELRTQV chain 2: MATPDAGLPGAEGVEPAPWAQLEAPARLLLQALQAGPEGARRGLGVLRALGSRGWEPFDWGRLLEALCREEPVVQGPDGRLELKPLLLRLPRICQRNLMSLLMAVRPSLPESGLLSVLQIAQQDLAPDPDAWLRALGELLRRDLGVGTSMEGASPLSERCQRQLQSLCRGLGLGGRRLKSPQAPDPEEEENRDSQQPGKRRKDSEEEAASPEGKRVPKRLRCWEEEEDHEKERPEHKSLESLADGGSASPIKDQPVMAVKTGEDGSNLDDAKGLAESLELPKAIQDQLPRLQQLLKTLEEGLEGLEDAPPVELQLLHECSPSQMDLLCAQLQLPQLSDLGLLRLCTWLLALSPDLSLSNATVLTRSLFLGRILSLTSSASRLLTTALTSFCAKYTYPVCSALLDPVLQAPGTGPAQTELLCCLVKMESLEPDAQVLMLGQILELPWKEETFLVLQSLLERQVEMTPEKFSVLMEKLCKKGLAATTSMAYAKLMLTVMTKYQANITETQRLGLAMALEPNTTFLRKSLKAALKHLGP chain 3: MESLLQHLDRFSELLAVSSTTYVSTWDPATVRRALQWARYLRHIHRRFGRHGPIRTALERRLHNQWRQEGGFGRGPVPGLANFQALGHCDVLLSLRLLENRALGDAARYHLVQQLFPGPGVRDADEETLQESLARLARRRSAVHMLRFNGYRENPNLQEDSLMKTQAELLLERLQEVGKAEAERPARFLSSLWERLPQNNFLKVIAVALLQPPLSRRPQEELEPGIHKSPGEGSQVLVHWLLGNSEVFAAFCRALPAGLLTLVTSRHPALSPVYLGLLTDWGQRLHYDLQKGIWVGTESQDVPWEELHNRFQSLCQAPPPLKDKVLTALETCKAQDGDFEVPGLSIWTDLLLALRSGAFRKRQVLGLSAGLSSV | 
2 |  | FANCB (natural protein) MTSKQAMSSNEQERLLCYNGEVLVFQLSKGNFADKEPTKTPILHVRRMVFDRGTKVFVQKSTGFFTIKEENSHLKIMCCNCVSDFRTGINLPYIVIEKNKKNNVFEYFLLILHSTNKFEMRLSFKLGYEMKDGLRVLNGPLILWRHVKAFFFISSQTGKVVSVSGNFSSIQWAGEIENLGMVLLGLKECCLSEEECTQEPSKSDYAIWNTKFCVYSLESQEVLSDIYIIPPAYSSVVTYVHICATEIIKNQLRISLIALTRKNQLISFQNGTPKNVCQLPFGDPCAVQLMDSGGGNLFFVVSFISNNACAVWKESFQVAAKWEKLSLVLIDDFIGSGTEQVLLLFKDSLNSDCLTSFKITDLGKINYSSEPSDCNEDDLFEDKQENRYLVVPPLETGLKVCFSSFRELRQHLLLKEKIISKSYKALINLVQGKDDNTSSAEEKECLVPLCGEEENSVHILDEKLSDNFQDSEQLVEKIWYRVIDDSLVVGVKTTSSLKLSLNDVTLSLLMDQAHDSRFRLLKCQNRVIKLSTNPFPAPYLMPCEIGLEAKRVTLTPDSKKEESFVCEHPSKKECVQIITAVTSLSPLLTFSKFCCTVLLQIMERESGNCPKDRYVVCGRVFLSLEDLSTGKYLLTFPKKKPIEHMEDLFALLAAFHKSCFQITSPGYALNSMKVWLLEHMKCEIIKEFPEVYFCERPGSFYGTLFTWKQRTPFEGILIIYSRNQTVMFQCLHNLIRILPINCFLKNLKSGSENFLIDNMAFTLEKELVTLSSLSSAIAKHESNFMQRCEVSKGKSSVVAAALSDRRENIHPYRKELQREKKKMLQTNLKVSGALYREITLKVAEVQLKSDFAAQKLSNL | 2
